Test results published in article PMC9110858.

How the values were obtained:
IL-15 (Homo sapiens) = IL-15 (Homo sapiens) (UniProt P40933); conditions: cited from earlier work
[1] = target: trimeric IL-15Rα/IL-2Rβ/γc receptor on Kit225 cells (human (endogenous in Kit225)) (UniProt Q13261)
IL-2 (Homo sapiens) = IL-2 (Homo sapiens) (UniProt P60568); conditions: cited from earlier work
UniProt P60568, sequence (P60568 21-153): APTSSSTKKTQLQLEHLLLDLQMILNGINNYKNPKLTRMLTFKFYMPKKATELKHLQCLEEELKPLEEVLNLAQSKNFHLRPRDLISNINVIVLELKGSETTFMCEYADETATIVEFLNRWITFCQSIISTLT

UniProt P40933, sequence (P40933 49-162): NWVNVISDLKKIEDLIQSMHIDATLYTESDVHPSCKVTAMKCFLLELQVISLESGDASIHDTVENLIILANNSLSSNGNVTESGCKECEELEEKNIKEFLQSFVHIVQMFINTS

IL-15Rα (from UniProt Q13261)
Kd (IL-15 (Homo sapiens)): 0.05 nM

NANTIL-15 (New ANTagonist of IL-15), human IL-15 L45D-N65K-L69R linked to a human Fc (IgG1) (Fc fusion)
IC50 of inhibition of IL-15- or IL-15D8S-induced Kit225 cell proliferation by increasing NANTIL-15 [1]: < 1 nM
IC50 of inhibition of IL-15-induced Stat5 phosphorylation in Kit225 cells by increasing NANTIL-15 (blocks IL-15 acting through the trimeric IL-15Rα/IL-2Rβ/γc receptor) [1]: 1 nM
IC50 of inhibition of IL-15D8S-induced pStat5 signal in Kit225 cells by increasing NANTIL-15 (IL-15D8S signals only through the trimeric receptor) [1]: 0.001 µM
plateau of inhibition of IL-15-induced Stat5 phosphorylation in Kit225 cells by increasing NANTIL-15 [1]: 60%

IL-2Rα (from UniProt P01589)
Kd (IL-2 (Homo sapiens)): 10 nM
